These sequences were tested against SHP2-C SH2 (assay: SH2 binding enrichment of the phosphorylated peptide, bacterial display (enrichment ratio); higher = better substrate or ligand; peptides without Tyr show the background).
GGGGSYNNFGN [HNRNPA1_Y312_D314N] showed an SH2 binding enrichment of 0.587. For YTHSDYQYSQR [PKP2_Y166], the SH2 binding enrichment was 0.638. For MPLTKYLKRIK [CNGB3_Y200_E199K], the SH2 binding enrichment was 1.03. KVGPGSLGSGG [RET_Y826_Y826S] gave an SH2 binding enrichment of 0.526. With CNPLCYPTIMI [OR6K6_Y160_R159C] the SH2 binding enrichment was 0.617. ATHRGYDLDNP [MMUT_Y146_S148L] showed an SH2 binding enrichment of 0.654. For RQSHNYLGGFA [SYK_Y47_R45H], the SH2 binding enrichment was 1.13. NGQAVYAACQT [XDH_Y1092] was tested, and the SH2 binding enrichment was 0.618. Sequence HSGLAYTMERS [GLUD1_Y512] has an SH2 binding enrichment of 0.733. With LEFGDCHPLKP [VPS35L_Y32_Y32C] the SH2 binding enrichment was 0.613. LSSNLYFRWLT [CNGA3_Y168_P163L_YF] was tested, and the SH2 binding enrichment was 1.01. For RLTEGYTGPFK [ZNF862_Y181_I178T], the SH2 binding enrichment was 0.547. In the case of ILTYKYLQKPM [KIT_Y547], the SH2 binding enrichment is reported as 0.362. For EREYKYGAHNY [OAT_Y50], the SH2 binding enrichment was 0.783. Sequence FRPHLYGTPSR [ADGRE2_Y670_S665F] has an SH2 binding enrichment of 1.65. For DAICYYRMENA [NPHS2_Y195], the SH2 binding enrichment was 0.799. In the case of VRFMANTDETF [F8_Y450_Y450N], the SH2 binding enrichment is reported as 0.722. ALDHKYHGGGG [HBB_Y146_A143D] showed an SH2 binding enrichment of 0.6. For TLKVGYTEKQR [EPHA3_Y659], the SH2 binding enrichment was 0.714. For PGVDRYSLGTS [C5orf42_Y1451], the SH2 binding enrichment was 0.762. Sequence HGVSSYDTVIS [LDLR_Y465] has an SH2 binding enrichment of 0.795. For QRCYVYYYSYL [PTEN_Y176_R173C], the SH2 binding enrichment was 0.542. HQKKPYCHTHN [NRAP_Y53_A56T] showed an SH2 binding enrichment of 1.55. Sequence INVTIYGKTFR [EFHC1_Y177_I174V] has an SH2 binding enrichment of 0.581. With RRAKGYPIDLY [ITGB2_Y125] the SH2 binding enrichment was 0.627. RKELFYKADGE [SERPINC1_Y272] was tested, and the SH2 binding enrichment was 0.942. KDGNGYISAAE [CALM1_Y100] was tested, and the SH2 binding enrichment was 0.746. Work on SRDDYYETIAM [NPY1R_Y347_D346Y] yielded an SH2 binding enrichment of 0.431. PSQRRNVFFFS [PTEN_Y174_Y174N_YF] was tested, and the SH2 binding enrichment was 1.09. ALRASYTPSPA [ESS2_Y418] showed an SH2 binding enrichment of 0.624. With PINLFYLMDLS [ITGB2_Y131_D128N_YF] the SH2 binding enrichment was 0.781. In the case of MKGDFYCFLAE [YWHAG_Y131_R132C_YF], the SH2 binding enrichment is reported as 0.742. For TSPKSCPSQKH [CAP2_Y316_Y316C], the SH2 binding enrichment was 0.967.

What follows are sequences tested against c-Src SH2 in the same assay as above.
In the case of GGGGSYNNFGN [HNRNPA1_Y312_D314N], the SH2 binding enrichment is reported as 0.43. With YTHSDYQYSQR [PKP2_Y166] the SH2 binding enrichment was 0.595. Sequence MPLTKYLKRIK [CNGB3_Y200_E199K] has an SH2 binding enrichment of 0.834. KVGPGSLGSGG [RET_Y826_Y826S] showed an SH2 binding enrichment of 0.447. Sequence CNPLCYPTIMI [OR6K6_Y160_R159C] has an SH2 binding enrichment of 0.42. ATHRGYDLDNP [MMUT_Y146_S148L] showed an SH2 binding enrichment of 0.384. In the case of RQSHNYLGGFA [SYK_Y47_R45H], the SH2 binding enrichment is reported as 0.433. For NGQAVYAACQT [XDH_Y1092], the SH2 binding enrichment was 0.427. In the case of HSGLAYTMERS [GLUD1_Y512], the SH2 binding enrichment is reported as 0.314. With LEFGDCHPLKP [VPS35L_Y32_Y32C] the SH2 binding enrichment was 0.529. LSSNLYFRWLT [CNGA3_Y168_P163L_YF] was tested, and the SH2 binding enrichment was 0.531. With RLTEGYTGPFK [ZNF862_Y181_I178T] the SH2 binding enrichment was 0.522. With ILTYKYLQKPM [KIT_Y547] the SH2 binding enrichment was 0.428. Sequence EREYKYGAHNY [OAT_Y50] has an SH2 binding enrichment of 0.623. For FRPHLYGTPSR [ADGRE2_Y670_S665F], the SH2 binding enrichment was 1.77. DAICYYRMENA [NPHS2_Y195] gave an SH2 binding enrichment of 0.641. VRFMANTDETF [F8_Y450_Y450N] showed an SH2 binding enrichment of 0.452. For ALDHKYHGGGG [HBB_Y146_A143D], the SH2 binding enrichment was 0.479. TLKVGYTEKQR [EPHA3_Y659] showed an SH2 binding enrichment of 0.486. In the case of PGVDRYSLGTS [C5orf42_Y1451], the SH2 binding enrichment is reported as 0.262. Sequence HGVSSYDTVIS [LDLR_Y465] has an SH2 binding enrichment of 6.43. QRCYVYYYSYL [PTEN_Y176_R173C] gave an SH2 binding enrichment of 0.587. For HQKKPYCHTHN [NRAP_Y53_A56T], the SH2 binding enrichment was 1.08. Work on INVTIYGKTFR [EFHC1_Y177_I174V] yielded an SH2 binding enrichment of 0.572. In the case of RRAKGYPIDLY [ITGB2_Y125], the SH2 binding enrichment is reported as 0.466. RKELFYKADGE [SERPINC1_Y272] was tested, and the SH2 binding enrichment was 0.369. For KDGNGYISAAE [CALM1_Y100], the SH2 binding enrichment was 0.571. Work on SRDDYYETIAM [NPY1R_Y347_D346Y] yielded an SH2 binding enrichment of 3.29. PSQRRNVFFFS [PTEN_Y174_Y174N_YF] was tested, and the SH2 binding enrichment was 0.613. ALRASYTPSPA [ESS2_Y418] was tested, and the SH2 binding enrichment was 0.536. PINLFYLMDLS [ITGB2_Y131_D128N_YF] showed an SH2 binding enrichment of 0.489. For MKGDFYCFLAE [YWHAG_Y131_R132C_YF], the SH2 binding enrichment was 0.54. TSPKSCPSQKH [CAP2_Y316_Y316C] gave an SH2 binding enrichment of 0.759.

— the supplement of paper PMC10065799, “High-throughput profiling of sequence recognition by tyrosine kinases and SH2 domains using bacterial peptide display” (eLife, 2023)
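Also: peptide library displayed on the E. coli surface as eCPX fusions, selected cells deep-sequenced, score is each peptide's frequency after selection divided by its frequency in the input.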
